Values quoted from earlier work as cited in publication PMC11087511.

Experiments:
[1] = target: factor Xa within prothrombinase (Homo sapiens) (UniProt P00742); settings: cited from earlier work
factor Xa (Homo sapiens) = factor Xa (Homo sapiens) (UniProt P00742); settings: cited from earlier work
factor Xa (Homo sapiens), sequence (P00742 235-488): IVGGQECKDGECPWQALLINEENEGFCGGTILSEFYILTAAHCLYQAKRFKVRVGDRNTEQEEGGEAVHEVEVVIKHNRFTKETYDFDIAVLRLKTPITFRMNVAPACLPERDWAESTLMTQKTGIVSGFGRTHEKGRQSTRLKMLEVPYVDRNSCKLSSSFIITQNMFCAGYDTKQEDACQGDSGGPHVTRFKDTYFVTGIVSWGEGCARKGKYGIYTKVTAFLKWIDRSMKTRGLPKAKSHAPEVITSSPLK

Tick anticoagulant peptide (TAP), sequence (P17726 whole entry): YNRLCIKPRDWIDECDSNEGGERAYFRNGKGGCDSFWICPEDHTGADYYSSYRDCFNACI
factor Xa within prothrombinase (Homo sapiens), sequence (P00742 41-179, chain 1 of 2): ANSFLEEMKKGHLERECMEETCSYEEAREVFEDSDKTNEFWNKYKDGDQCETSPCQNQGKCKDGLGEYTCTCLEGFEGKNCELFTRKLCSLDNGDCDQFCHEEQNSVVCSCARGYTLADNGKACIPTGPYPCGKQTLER
factor Xa within prothrombinase (Homo sapiens), sequence (P00742 235-488, chain 2 of 2): as the sequence (P00742 235-488) above

Substance: Tick anticoagulant peptide (TAP) (from UniProt P17726)
- Ki [1]: 0.0053 nM
- Ki (factor Xa (Homo sapiens)): 0.18 nM
